These results are taken from article doi:10.1101/2023.09.27.559698.

One data set concerns the target 53BP1 GAR-Tudor (Homo sapiens, UniProt Q12888 1288-1659). Put plainly: SPR. In general terms: SPR reads the build-up and loss of mass on a sensor chip optically.
Another data set has as its target 53BP1 GAR(3K)-Tudor (Homo sapiens, UniProt Q12888 1288-1659, R1396K;R1398K;R1401K). Put plainly: SPR.

As a reminder, the Kd is the free concentration of one partner at which half of the binding sites on the other are occupied at equilibrium, for simple one-to-one binding. Read a low Kd as tighter binding.

53BP1 GAR-Tudor, sequence (Q12888 1288-1659): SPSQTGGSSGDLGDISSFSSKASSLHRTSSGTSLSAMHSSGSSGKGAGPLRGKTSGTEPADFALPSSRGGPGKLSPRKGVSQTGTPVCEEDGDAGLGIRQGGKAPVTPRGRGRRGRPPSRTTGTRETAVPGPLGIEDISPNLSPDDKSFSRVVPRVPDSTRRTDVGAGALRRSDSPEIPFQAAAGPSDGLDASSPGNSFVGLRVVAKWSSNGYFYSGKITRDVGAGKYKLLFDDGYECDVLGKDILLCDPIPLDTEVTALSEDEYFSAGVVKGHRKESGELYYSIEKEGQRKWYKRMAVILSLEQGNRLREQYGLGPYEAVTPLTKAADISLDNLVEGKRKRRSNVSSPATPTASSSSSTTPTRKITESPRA
53BP1 GAR(3K)-Tudor, sequence (Q12888 1288-1659 R1396K/R1398K/R1401K): as the sequence (Q12888 1288-1659) above, with R109K, R111K, R114K counted along it

B1: SC1 RNA, biotinylated (structured_RNA)
RNA: GCUGCGGUGUGGAAGGAGUGGUCGGGUUGCGCAGCG
In the data set with 53BP1 GAR-Tudor, B1 had a Kd of around 8 nM. Besides, in the data set with 53BP1 GAR(3K)-Tudor, the binding result is reported as “no binding”.
